Test results taken from paper PMC10786891, “Massively parallel profiling of RNA-targeting CRISPR-Cas13d”.

B1: target 1 MT 5'PFS GAA 3'PFS CUU (mixed)
RNA 1: CACCCGUGCAAAAAUGCAGGGGUCUAAAACUGAGCGGAUAACCUCUCUAUGG
RNA 2: GGGAAUGGAUCCACAUCUACGAAUUCGAACCAUAGAGAGGUUAUCCGCUCACUUAGAUCGGAAGAGCACACGU
B2: target 1 del2 (mixed)
RNA 1: CACCCGUGCAAAAAUGCAGGGGUCUAAAACUGAGCGGAUAACCUCUCUAUGG
RNA 2: GGGAAUGGAUCCACAUCUACGAAUUCGUACCAUAGAGAGGUUAUCCGCUACCGAGAUCGGAAGAGCACACGU
B3: target 1 MT 5'PFS UUG 3'PFS AAC (mixed)
RNA 1: CACCCGUGCAAAAAUGCAGGGGUCUAAAACUGAGCGGAUAACCUCUCUAUGG
RNA 2: GGGAAUGGAUCCACAUCUACGAAUUCUUGCCAUAGAGAGGUUAUCCGCUCAAACAGAUCGGAAGAGCACACGU
B4: target 1 MT 5'PFS GGG 3'PFS ACG (mixed)
RNA 1: CACCCGUGCAAAAAUGCAGGGGUCUAAAACUGAGCGGAUAACCUCUCUAUGG
RNA 2: GGGAAUGGAUCCACAUCUACGAAUUCGGGCCAUAGAGAGGUUAUCCGCUCAACGAGAUCGGAAGAGCACACGU
B5: target 1 MT 5'PFS GCU 3'PFS UAU (mixed)
RNA 1: CACCCGUGCAAAAAUGCAGGGGUCUAAAACUGAGCGGAUAACCUCUCUAUGG
RNA 2: GGGAAUGGAUCCACAUCUACGAAUUCGCUCCAUAGAGAGGUUAUCCGCUCAUAUAGAUCGGAAGAGCACACGU
B6: target 1 MT 5'PFS ACA 3'PFS AGG (mixed)
RNA 1: CACCCGUGCAAAAAUGCAGGGGUCUAAAACUGAGCGGAUAACCUCUCUAUGG
RNA 2: GGGAAUGGAUCCACAUCUACGAAUUCACACCAUAGAGAGGUUAUCCGCUCAAGGAGAUCGGAAGAGCACACGU
B7: target 1 MT 5'PFS GGC 3'PFS UGU (mixed)
RNA 1: CACCCGUGCAAAAAUGCAGGGGUCUAAAACUGAGCGGAUAACCUCUCUAUGG
RNA 2: GGGAAUGGAUCCACAUCUACGAAUUCGGCCCAUAGAGAGGUUAUCCGCUCAUGUAGAUCGGAAGAGCACACGU
B8: target 1 MT 5'PFS GGG 3'PFS ACA (mixed)
RNA 1: CACCCGUGCAAAAAUGCAGGGGUCUAAAACUGAGCGGAUAACCUCUCUAUGG
RNA 2: GGGAAUGGAUCCACAUCUACGAAUUCGGGCCAUAGAGAGGUUAUCCGCUCAACAAGAUCGGAAGAGCACACGU
B9: target 1 MT 5'PFS CUU 3'PFS AAU (mixed)
RNA 1: CACCCGUGCAAAAAUGCAGGGGUCUAAAACUGAGCGGAUAACCUCUCUAUGG
RNA 2: GGGAAUGGAUCCACAUCUACGAAUUCCUUCCAUAGAGAGGUUAUCCGCUCAAAUAGAUCGGAAGAGCACACGU
B10: target 1 MT 5'PFS GAA 3'PFS CUA (mixed)
RNA 1: CACCCGUGCAAAAAUGCAGGGGUCUAAAACUGAGCGGAUAACCUCUCUAUGG
RNA 2: GGGAAUGGAUCCACAUCUACGAAUUCGAACCAUAGAGAGGUUAUCCGCUCACUAAGAUCGGAAGAGCACACGU
B11: target 1 MT 5'PFS GGG 3'PFS AAU (mixed)
RNA 1: CACCCGUGCAAAAAUGCAGGGGUCUAAAACUGAGCGGAUAACCUCUCUAUGG
RNA 2: GGGAAUGGAUCCACAUCUACGAAUUCGGGCCAUAGAGAGGUUAUCCGCUCAAAUAGAUCGGAAGAGCACACGU
B12: target 1 MT 5'PFS UUG 3'PFS AAU (mixed)
RNA 1: CACCCGUGCAAAAAUGCAGGGGUCUAAAACUGAGCGGAUAACCUCUCUAUGG
RNA 2: GGGAAUGGAUCCACAUCUACGAAUUCUUGCCAUAGAGAGGUUAUCCGCUCAAAUAGAUCGGAAGAGCACACGU
B13: target 1 MT 5'PFS CUU 3'PFS AAC (mixed)
RNA 1: CACCCGUGCAAAAAUGCAGGGGUCUAAAACUGAGCGGAUAACCUCUCUAUGG
RNA 2: GGGAAUGGAUCCACAUCUACGAAUUCCUUCCAUAGAGAGGUUAUCCGCUCAAACAGAUCGGAAGAGCACACGU

Target: T1, EsCas13d, nuclease-dead (Eubacterium siraeum, UniProt B0MS50, R295A;H300A;R849A;H854A)
T1 sequence: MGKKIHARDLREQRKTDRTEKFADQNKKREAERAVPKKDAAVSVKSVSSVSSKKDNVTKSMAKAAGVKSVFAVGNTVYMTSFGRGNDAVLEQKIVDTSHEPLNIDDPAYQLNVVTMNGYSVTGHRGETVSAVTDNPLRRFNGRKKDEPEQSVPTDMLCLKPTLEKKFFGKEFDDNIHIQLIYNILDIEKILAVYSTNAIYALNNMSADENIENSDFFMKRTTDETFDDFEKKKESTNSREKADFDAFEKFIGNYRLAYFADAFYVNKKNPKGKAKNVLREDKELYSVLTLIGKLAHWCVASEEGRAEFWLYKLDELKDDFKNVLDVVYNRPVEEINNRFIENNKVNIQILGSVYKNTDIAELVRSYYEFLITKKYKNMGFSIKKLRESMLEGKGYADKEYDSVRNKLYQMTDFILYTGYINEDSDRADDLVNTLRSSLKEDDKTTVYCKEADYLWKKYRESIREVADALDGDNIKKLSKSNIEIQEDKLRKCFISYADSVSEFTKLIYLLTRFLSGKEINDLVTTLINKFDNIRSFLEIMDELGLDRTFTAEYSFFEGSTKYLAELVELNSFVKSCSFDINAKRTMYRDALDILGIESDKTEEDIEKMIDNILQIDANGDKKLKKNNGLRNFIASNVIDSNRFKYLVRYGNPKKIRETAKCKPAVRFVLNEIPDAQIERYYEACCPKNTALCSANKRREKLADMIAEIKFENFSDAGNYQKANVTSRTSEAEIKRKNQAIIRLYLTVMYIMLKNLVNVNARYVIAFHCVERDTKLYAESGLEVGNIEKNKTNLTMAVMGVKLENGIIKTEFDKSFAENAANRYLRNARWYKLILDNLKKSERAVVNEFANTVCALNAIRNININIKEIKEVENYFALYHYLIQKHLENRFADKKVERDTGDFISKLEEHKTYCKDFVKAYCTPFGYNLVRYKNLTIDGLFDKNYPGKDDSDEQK
Test: crRNA (strand 1, pre-loaded); Mg2+; 40 mM Tris-HCl pH 7.5, 150 mM NaCl, 6 mM MgCl2, 1 mM DTT, 0.1% Tween-20, 0.2 mg/ml BSA; 25 C; 10 min per concentration, then washed
Conditions: tags: His6-TwinStrep-SUMO cleaved; N-terminal SNAP kept (SNAP-Surface 488); label: 3' end held by stalled T7 RNA polymerase

Binder	Kd
B1	0.0185 ± 0.0075 µM
B2	0.033 ± 0.004 µM
B3	~0.0415 µM
B4	0.0175 ± 0.00185 µM
B5	0.073 ± 0.028 µM
B6	~0.046 µM
B7	0.0161 ± 0.00225 µM
B8	0.0285 ± 0.0065 µM
B9	0.058 ± 0.027 µM
B10	~0.04 µM
B11	0.028 ± 0.0045 µM
B12	0.0225 ± 0.00425 µM
B13	0.041 ± 0.0175 µM
